Test results: patent publication US20160115223A1

Legend:
Aβ42 fibers [1] = molecular target: Aβ42 fibers (UniProt P05067); assay: cell-based or functional assay
Aβ42 fibers [2] = molecular target: Aβ42 fibers (UniProt P05067); assay: ELISA, Aβ42 fibers on plate; IC50(variant)/IC50(SEQ ID NO: 3)

Aβ42 fibers, sequence (P05067 672-713 limits assumed): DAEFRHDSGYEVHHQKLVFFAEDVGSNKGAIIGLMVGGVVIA

Substance | EC50, cellulose acetate filter retardation assay (disaggregation) (Aβ42 fibers [1]) [nM] | IC50 Relative to SEQ ID NO: 3 (Aβ42 fibers [2])
N1-N2-hIgG1-Fc fusion protein (SEQ ID NO:1) (from UniProt O34714 1-385) | 100 | –
N1-N2-human IgG Fc fusion protein of SEQ ID NO: 3 with D178G (from UniProt P69168 19-274) | – | 0.2
N1-N2-human IgG Fc fusion protein of SEQ ID NO: 3 with D178Q | – | 0.6
N1-N2-human IgG Fc fusion protein of SEQ ID NO: 3 with D178S | – | 0.3
N1-N2-human IgG Fc fusion protein of SEQ ID NO: 3 with D178T | – | 0.4
N1-N2-human IgG Fc fusion protein of SEQ ID NO: 3 with F141D | – | 0.2
N1-N2-human IgG Fc fusion protein of SEQ ID NO: 3 with F141E (from UniProt P69168 19-274) | – | 0.2
N1-N2-human IgG Fc fusion protein of SEQ ID NO: 3 with G48H | – | 1.8
N1-N2-human IgG Fc fusion protein of SEQ ID NO: 3 with G48K (from UniProt P69168 19-274) | – | 1.1
N1-N2-human IgG Fc fusion protein of SEQ ID NO: 3 with G48R (from UniProt P69168 19-274) | – | 1.9
N1-N2-human IgG Fc fusion protein of SEQ ID NO: 3 with G48S | – | 1.2
N1-N2-human IgG Fc fusion protein of SEQ ID NO: 3 with G48T | – | 1
N1-N2-human IgG Fc fusion protein of SEQ ID NO: 3 with M135A (from UniProt P69168 19-274) | – | 0.4
N1-N2-human IgG Fc fusion protein of SEQ ID NO: 3 with M135D (from UniProt P69168 19-274) | – | 0.5
N1-N2-human IgG Fc fusion protein of SEQ ID NO: 3 with M135G | – | 0.2
N1-N2-human IgG Fc fusion protein of SEQ ID NO: 3 with M135H (from UniProt P69168 19-274) | – | 0.1
N1-N2-human IgG Fc fusion protein of SEQ ID NO: 3 with M135N (from UniProt P69168 19-274) | – | 0.3
N1-N2-human IgG Fc fusion protein of SEQ ID NO: 3 with M135R (from UniProt P69168 19-274) | – | 0.1
N1-N2-human IgG Fc fusion protein of SEQ ID NO: 3 with M176G | – | 0.3
N1-N2-human IgG Fc fusion protein of SEQ ID NO: 3 with M176H | – | 0.4
N1-N2-human IgG Fc fusion protein of SEQ ID NO: 3 with M176K (from UniProt P69168 19-274) | – | 0.2
N1-N2-human IgG Fc fusion protein of SEQ ID NO: 3 with M176N (from UniProt P69168 19-274) | – | 0.5
N1-N2-human IgG Fc fusion protein of SEQ ID NO: 3 with M176R | – | 0.2

Substance | EC50, cellulose acetate filter retardation assay (disaggregation) (Aβ42 fibers [1]) [nM] | IC50 Relative to SEQ ID NO: 3 (Aβ42 fibers [2])
N1-N2-human IgG Fc fusion protein of SEQ ID NO: 3 with R140A | – | 0.2
N1-N2-human IgG Fc fusion protein of SEQ ID NO: 3 with R140D | – | 0.3
N1-N2-human IgG Fc fusion protein of SEQ ID NO: 3 with R140E | – | 0.3
N1-N2-human IgG Fc fusion protein of SEQ ID NO: 3 with R140G (from UniProt P69168 19-274) | – | 0.2
N1-N2-human IgG Fc fusion protein of SEQ ID NO: 3 with R140H | – | 0.2
N1-N2-human IgG Fc fusion protein of SEQ ID NO: 3 with S173G (from UniProt P69168 19-274) | – | 0.2
N1-N2-human IgG Fc fusion protein of SEQ ID NO: 3 with S173P | – | 0.4
N1-N2-human IgG Fc fusion protein of SEQ ID NO: 3 with T51G (from UniProt P69168 19-274) | – | 0.8
N1-N2-human IgG Fc fusion protein of SEQ ID NO: 3 with T51H (from UniProt P69168 19-274) | – | 1.5
N1-N2-human IgG Fc fusion protein of SEQ ID NO: 3 with T51K | – | 2.5
N1-N2-human IgG Fc fusion protein of SEQ ID NO: 3 with T51N | – | 0.5
N1-N2-human IgG Fc fusion protein of SEQ ID NO: 3 with T51P | – | 0.2
N1-N2-human IgG Fc fusion protein of SEQ ID NO: 3 with T51Q | – | 0.8
N1-N2-human IgG Fc fusion protein of SEQ ID NO: 3 with T51R | – | 2
N1-N2-human IgG Fc fusion protein of SEQ ID NO: 3 with T56G | – | 0.1
N1-N2-human IgG Fc fusion protein of SEQ ID NO: 3 with T56H | – | 0.77
N1-N2-human IgG Fc fusion protein of SEQ ID NO: 3 with T56R (from UniProt P69168 19-274) | – | 0.8
N1-N2-human IgG Fc fusion protein of SEQ ID NO: 3 with W181G | – | 0.5
N1-N2-human IgG Fc fusion protein of SEQ ID NO: 3 with W181H | – | 0.87
N1-N2-human IgG Fc fusion protein of SEQ ID NO: 3 with W181K | – | 0.3
N1-N2-human IgG Fc fusion protein of SEQ ID NO: 3 with Y54H | – | 0.3
N1-N2-human IgG Fc fusion protein of SEQ ID NO: 3 with Y54P | – | 0.07
